According to patent US20230068663A1 (University of Texas, published 2023):

T1: LAIR1 on reporter cells (UniProt Q6GTX8 22-165, limits assumed)
T1 sequence (looked up): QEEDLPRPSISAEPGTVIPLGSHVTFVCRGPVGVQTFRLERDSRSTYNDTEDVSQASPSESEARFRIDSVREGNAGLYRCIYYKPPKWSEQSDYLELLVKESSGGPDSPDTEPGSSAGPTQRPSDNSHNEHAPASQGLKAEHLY

B1: B2-16 (antibody, V domains shown)
VH: QVQLVQSGAEVKKPGSSVKVSCKASGGTFSSYAISWVRQAPGQGLEWMGGIIPIFGTANYAQKFQGRVTITADESTSTAYMELSSLRSEDTAVYYCASGIIPDNPYGMDVWGQGTMVSVSS
VL: DIVMTQSPLSLPVTLGQPASISCTSSQSLVYSDGNTYLNWFHQRPGQSPRRLFYKVSNRASGVPDRFSGSGSGTDFTLKISRVEAEDLGVYYCMQGTHWPVTFGQGTRLEIK
notes: also called B2-16_HC; B2-16_LC
B2: B2-7 (antibody, V domains shown)
VH: EVQLVESGGGVVQPGRSLRLSCAASGFTISSYGMHWVRQAPGKGLEWVAVISYDGSNKYYADSVKGRFTISRDNSKNTLYLQMNSLRVEDTAVYYCAKDLLLRYFDWSPKYYYNGMDVWGQGTMVTVSS
VL: QSVLTQPPSVSVAPGKTARITCGGNNIGSKSVHWYQQKPGQAPVLVVYDDSDRPSGIPERFSGSNSGNTATLTISRVEAGDEADYYCQVWDSSSDHPGVFGTGTKVTVL
notes: also called B2-7_HC; B2-7_LC
B3: B2-19 (antibody, V domains shown)
VH: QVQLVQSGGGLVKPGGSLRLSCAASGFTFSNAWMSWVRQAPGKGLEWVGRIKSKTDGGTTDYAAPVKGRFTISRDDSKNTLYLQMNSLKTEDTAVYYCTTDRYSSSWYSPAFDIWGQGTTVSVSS
VL: QPVLTQPPSVSEAPRQRVTISCSGSSSNIGNNVVNWYQQLPGKAPKLLIYYDDLLPSGVSDRFSGSKSGTSASLAISGLQSEDEADYYCATWDDSLNGPVFGGGTKLTVL
notes: also called B2-19_HC; B2-19_LC

Target: T2, LILRB2 (antigen in solution, Octet RED 96) (UniProt Q8N423 22-460, limits assumed)
T2 construct: also called LILRB2 solution
Assay: BLI (Octet RED 96), antibody on protein A biosensor, LILRB2 in solution
Experimental: Affinity measurement of blocking antibodies. Affinities of the 5 blocking antibodies were measured on Octet RED 96 system.

Row | Binder | Kd [nM] | koff [s⁻¹] | kon [M⁻¹ s⁻¹]
1 | B1 | 7.45 | 0.0009 | 121000
2 | B2 | 15.2 | 0.00305 | 200000
3 | B3 | 1.84 | 0.00046 | 250000

Target: T3, LILRB2 chimeric receptor on LILRB2 reporter cells (extracellular domain of LILRB2 fused with … (UniProt Q8N423 22-460))
T3 construct: extracellular domain;domain: transmembrane/intracellular domains; associates with DAP12; also called LILRB2-expressing reporter cells
Assay: flow cytometry, reporter cells
Experimental: (§1) FIG. 29. Binding of LILRB2 antibodies on reporter cell line expressing ectodomain of LILR family proteins on cell surface. Bound antibodies were detected with anti-human Fc-specific secondary antibody (2nd Ab) conjugated to AF647. […] All incubations were performed for 30 minutes at 4° C. Data shown is mean fluorescence intensity after sample acquisition in flow cytometer.

Row | Binder | MFI
4 | B1 | 940
5 | B2 | 1160
6 | B3 | 1280

Target: T4, LILRB5
T4 construct: also called LILRB5 reporter cells; not shown: transmembrane/intracellular domains of PILRb, the display part of the chimeric reporter receptor
Assay: flow cytometry, reporter cells
Experimental: as §1

T4 sequence (chain, as listed by the source limits assumed): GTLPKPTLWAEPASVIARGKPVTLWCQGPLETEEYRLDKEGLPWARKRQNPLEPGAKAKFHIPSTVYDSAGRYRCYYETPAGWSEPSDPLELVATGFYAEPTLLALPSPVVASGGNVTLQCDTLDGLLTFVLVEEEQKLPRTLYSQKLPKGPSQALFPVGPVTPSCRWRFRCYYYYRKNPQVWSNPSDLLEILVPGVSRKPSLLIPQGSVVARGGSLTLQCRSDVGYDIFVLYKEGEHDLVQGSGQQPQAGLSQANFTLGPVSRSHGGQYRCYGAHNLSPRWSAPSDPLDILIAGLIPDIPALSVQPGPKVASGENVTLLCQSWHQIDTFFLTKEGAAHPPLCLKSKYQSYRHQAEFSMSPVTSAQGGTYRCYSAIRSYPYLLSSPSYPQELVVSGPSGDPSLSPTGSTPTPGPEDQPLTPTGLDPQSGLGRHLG

Row | Binder | MFI | binding result
7 | B1 | 11 | no binding
8 | B2 | 11 | no binding
9 | B3 | 11 | no binding

Target: T5, LILRA6
T5 construct: also called LILRA6 reporter cells
Assay: flow cytometry, reporter cells
Experimental: as §1

T5 sequence (chain, as listed by the source limits assumed): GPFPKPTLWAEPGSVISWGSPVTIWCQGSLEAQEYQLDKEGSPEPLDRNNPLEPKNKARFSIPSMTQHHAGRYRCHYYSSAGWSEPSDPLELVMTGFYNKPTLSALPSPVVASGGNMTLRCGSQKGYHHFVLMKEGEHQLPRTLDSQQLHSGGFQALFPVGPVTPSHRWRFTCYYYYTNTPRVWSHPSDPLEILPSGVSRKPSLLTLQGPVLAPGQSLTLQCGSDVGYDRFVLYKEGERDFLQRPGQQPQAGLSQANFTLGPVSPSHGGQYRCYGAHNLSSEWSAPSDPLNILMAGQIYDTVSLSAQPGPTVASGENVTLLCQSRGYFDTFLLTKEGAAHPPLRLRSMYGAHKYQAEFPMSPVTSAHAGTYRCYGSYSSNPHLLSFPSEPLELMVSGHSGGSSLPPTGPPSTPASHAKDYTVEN

Row | Binder | MFI | binding result
10 | B1 | 12 | no binding
11 | B2 | 11 | no binding
12 | B3 | 11 | no binding

Target: T6, LILRA5
T6 construct: also called LILRA5 reporter cells
Assay: flow cytometry, reporter cells
Experimental: as §1

T6 sequence (chain, as listed by the source limits assumed): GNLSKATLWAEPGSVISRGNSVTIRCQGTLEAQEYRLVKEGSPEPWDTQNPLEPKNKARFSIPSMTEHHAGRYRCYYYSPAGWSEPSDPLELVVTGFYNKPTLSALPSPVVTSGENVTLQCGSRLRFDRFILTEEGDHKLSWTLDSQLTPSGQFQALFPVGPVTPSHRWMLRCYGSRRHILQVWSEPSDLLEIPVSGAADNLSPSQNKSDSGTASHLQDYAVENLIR

Row | Binder | MFI | binding result
13 | B1 | 12 | no binding
14 | B2 | 11 | no binding
15 | B3 | 11 | no binding

Target: T7, LILRB1
T7 construct: also called LILRB1 reporter cells; not shown: transmembrane/intracellular domains of PILRb, the display part of the chimeric reporter receptor
Assay: flow cytometry, reporter cells
Experimental: as §1

T7 sequence (chain, as listed by the source limits assumed): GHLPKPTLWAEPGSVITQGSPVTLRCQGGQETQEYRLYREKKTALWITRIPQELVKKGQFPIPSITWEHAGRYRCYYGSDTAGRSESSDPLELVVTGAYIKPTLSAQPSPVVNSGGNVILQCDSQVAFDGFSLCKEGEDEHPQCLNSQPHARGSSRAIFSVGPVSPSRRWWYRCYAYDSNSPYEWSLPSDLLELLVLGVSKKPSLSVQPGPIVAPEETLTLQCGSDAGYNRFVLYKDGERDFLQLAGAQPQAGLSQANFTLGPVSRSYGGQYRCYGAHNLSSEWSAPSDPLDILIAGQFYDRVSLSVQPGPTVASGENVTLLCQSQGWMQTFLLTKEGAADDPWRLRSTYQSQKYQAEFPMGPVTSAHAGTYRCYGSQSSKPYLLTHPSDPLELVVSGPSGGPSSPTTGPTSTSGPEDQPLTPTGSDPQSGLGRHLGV

Row | Binder | MFI | binding result
16 | B1 | 10 | no binding
17 | B2 | 10 | no binding
18 | B3 | 10 | no binding

Target: T8, LILRA3
T8 construct: also called LILRA3 reporter cells; not shown: transmembrane/intracellular domains of PILRb, the display part of the chimeric reporter receptor
Assay: flow cytometry, reporter cells
Experimental: as §1

T8 sequence (chain, as listed by the source limits assumed): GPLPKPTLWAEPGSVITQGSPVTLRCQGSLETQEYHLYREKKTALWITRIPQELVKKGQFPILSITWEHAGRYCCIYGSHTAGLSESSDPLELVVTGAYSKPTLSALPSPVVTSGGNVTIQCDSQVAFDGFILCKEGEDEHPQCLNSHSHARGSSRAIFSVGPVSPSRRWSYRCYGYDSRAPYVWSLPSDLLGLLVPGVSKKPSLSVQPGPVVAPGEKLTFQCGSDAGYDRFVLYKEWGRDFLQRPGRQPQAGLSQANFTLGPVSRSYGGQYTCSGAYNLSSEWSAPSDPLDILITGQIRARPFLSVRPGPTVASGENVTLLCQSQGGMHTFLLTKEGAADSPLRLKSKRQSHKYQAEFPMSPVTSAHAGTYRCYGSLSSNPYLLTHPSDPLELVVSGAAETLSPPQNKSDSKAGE

Row | Binder | MFI | binding result
19 | B1 | 10 | no binding
20 | B2 | 10 | no binding
21 | B3 | 10 | no binding

Target: T9, LILRA4
T9 construct: also called LILRA4 reporter cells
Assay: flow cytometry, reporter cells
Experimental: as §1

T9 sequence (chain, as listed by the source limits assumed): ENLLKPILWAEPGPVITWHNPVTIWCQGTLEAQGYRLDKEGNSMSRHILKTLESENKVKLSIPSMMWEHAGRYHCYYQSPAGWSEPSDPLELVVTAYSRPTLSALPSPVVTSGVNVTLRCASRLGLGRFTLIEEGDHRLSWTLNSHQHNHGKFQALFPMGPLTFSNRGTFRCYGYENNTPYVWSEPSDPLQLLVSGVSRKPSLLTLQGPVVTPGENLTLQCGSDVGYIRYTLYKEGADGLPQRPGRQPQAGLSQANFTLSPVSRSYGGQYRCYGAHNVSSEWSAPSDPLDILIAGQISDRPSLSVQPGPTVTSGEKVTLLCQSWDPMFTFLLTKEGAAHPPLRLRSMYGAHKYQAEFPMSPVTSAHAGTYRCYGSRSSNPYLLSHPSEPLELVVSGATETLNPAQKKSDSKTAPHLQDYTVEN

Row | Binder | MFI | binding result
22 | B1 | 10 | no binding
23 | B2 | 10 | no binding
24 | B3 | 10 | no binding

Target: T10, LILRB3
T10 construct: also called LILRB3 reporter cells; not shown: transmembrane/intracellular domains of PILRb, the display part of the chimeric reporter receptor
Assay: flow cytometry, reporter cells
Experimental: as §1

Row | Binder | MFI | binding result
25 | B1 | 10 | no binding
26 | B2 | 11 | no binding
27 | B3 | 9 | no binding

Target: T11, LILRA2
T11 construct: also called LILRA2 reporter cells; not shown: transmembrane/intracellular domains of PILRb, the display part of the chimeric reporter receptor
Assay: flow cytometry, reporter cells
Experimental: as §1

T11 sequence (chain, as listed by the source limits assumed): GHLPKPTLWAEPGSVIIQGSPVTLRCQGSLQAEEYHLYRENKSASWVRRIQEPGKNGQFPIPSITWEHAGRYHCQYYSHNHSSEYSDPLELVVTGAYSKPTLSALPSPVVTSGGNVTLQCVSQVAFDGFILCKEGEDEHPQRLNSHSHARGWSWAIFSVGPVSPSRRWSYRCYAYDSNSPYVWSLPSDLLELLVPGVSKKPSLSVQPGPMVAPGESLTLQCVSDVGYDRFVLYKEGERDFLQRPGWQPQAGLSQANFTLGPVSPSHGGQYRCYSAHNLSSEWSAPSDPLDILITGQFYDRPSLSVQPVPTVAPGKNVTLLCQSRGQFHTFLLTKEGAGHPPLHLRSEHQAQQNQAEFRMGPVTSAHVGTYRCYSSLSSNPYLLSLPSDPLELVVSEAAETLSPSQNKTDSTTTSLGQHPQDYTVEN

Row | Binder | MFI | binding result
28 | B1 | 10 | no binding
29 | B2 | 10 | no binding
30 | B3 | 10 | no binding

Target: T12, LILRA1 on reporter cells (extracellular domain) (UniProt O75019 17-461, limits assumed)
T12 construct: extracellular domain
Assay: flow cytometry, reporter cells
Experimental: as §1

T12 sequence (O75019 17-461 limits assumed): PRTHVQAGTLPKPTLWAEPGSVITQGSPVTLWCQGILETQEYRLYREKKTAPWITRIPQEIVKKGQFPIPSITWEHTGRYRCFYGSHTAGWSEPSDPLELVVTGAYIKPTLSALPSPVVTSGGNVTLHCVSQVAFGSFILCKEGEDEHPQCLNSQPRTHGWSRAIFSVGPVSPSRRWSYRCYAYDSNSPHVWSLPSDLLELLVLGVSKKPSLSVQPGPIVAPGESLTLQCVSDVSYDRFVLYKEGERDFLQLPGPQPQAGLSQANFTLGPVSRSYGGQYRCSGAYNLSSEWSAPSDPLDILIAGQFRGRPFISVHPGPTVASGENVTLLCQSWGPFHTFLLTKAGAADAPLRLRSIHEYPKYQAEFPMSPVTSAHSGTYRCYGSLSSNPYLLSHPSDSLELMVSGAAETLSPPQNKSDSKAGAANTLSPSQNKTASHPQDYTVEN

Row | Binder | MFI | binding result
31 | B1 | 12 | no binding
32 | B2 | 12 | no binding
33 | B3 | 11 | no binding

Target: T13, LILRB4
T13 construct: also called LILRB4 reporter cells; not shown: transmembrane/intracellular domains of PILRb, the display part of the chimeric reporter receptor
Assay: flow cytometry, reporter cells
Experimental: as §1

Row | Binder | MFI | binding result
34 | B1 | 14 | no binding
35 | B2 | 15 | no binding
36 | B3 | 14 | no binding

Target: T1, LAIR1 on reporter cells
Assay: flow cytometry, reporter cells
Experimental: as §1

Row | Binder | MFI | binding result
37 | B1 | 24 | no binding
38 | B2 | 23 | no binding
39 | B3 | 22 | no binding

Target: T3, LILRB2 chimeric receptor on LILRB2 …
Assay: flow cytometry on LILRB2 reporter cells, APC anti-human IgG
Excerpt: FIGS. 1A-C. Screening specific monoclonal antibodies for LILRB2. […] Binding of monoclonal antibodies was screened using flow cytometer on LILRB2 reporter cells. Bound antibodies were detected with Allophycocyanin (APC)-labeled goat anti-human IgG secondary antibody. (FIG. 1B) Quantification of binding ability of monoclonal antibodies to LILRB2 reporter cells.
Screening specific monoclonal antibodies for LILRB2. The inventors employed a stable reporter cell system to detect the binding ability of selected monoclonal antibodies to LILRB2. In this chimeric receptor reporter system, the extracellular domain (ECD) of LILRB2 is fused with transmembrane/intracellular domains of PILRb that associates with the adaptor protein DAP12 containing an immunoreceptor tyrosine-based activation motif. 27 monoclonal antibodies were screened. The LILRB2 reporter cells were incubated with selected monoclonal antibody, then labeled with (APC) goat anti-human IgG secondary antibody. […] The inventors generated LILRBAs and LILRBs reporters stably transduced with each receptor's extracellular domain (ECD).

Row | Binder | percent of LILRB2 reporter cells labeled [%]
40 | B1 | > 95
41 | B2 | > 95
42 | B3 | > 95

Target: T14, endogenous LILRB2 on human myeloid cells / primary monocytes (human, UniProt Q8N423 22-597)
T14 construct: whole, on cells; also called cells expressing endogenous LILRB2
Assay: flow cytometry, CD14+CD16- monocytes, AF647-conjugated antibody
Experimental: FIG. 32. Binding of LILRB2 antibodies on CD14⁺CD16-monocytes isolated from human PBMC from healthy donors. Fifty thousand cells were incubated for 30 minutes at 4° C. with a dilution series (40-0.0006 μg/mL) of LILRB2 antibodies directly conjugated to AF647 in a final volume of 100 μL. Data shown is averaged geometric mean of fluorescence intensity from duplicate samples acquired in a flow cytometer (BD FACS Celesta) from one donor and is representative of 2 experiments with cells isolated from different donors.

Row | Binder | EC50 [µg/mL]
43 | B1 | 0.547
44 | B2 | 0.332
45 | B3 | 0.219

Target: T3, LILRB2 chimeric receptor on LILRB2 …
Assay: cell-based or functional assay

Row | Binder | Blocking potency (IC50) of GFP expression in LILRB2 reporter cells induced by coated ANGPTL2 [µg/mL]
46 | B1 | 0.131
47 | B2 | 0.221
48 | B3 | 0.0485

Target: T15, LILRB2-His antigen (UniProt Q8N423 22-460, limits assumed)
T15 construct: Coated on ELISA plates; also used for phage panning; also called LILRB2 antigen; not shown: His tag
Assay: indirect ELISA, coated LILRB2-His
Experimental: ELISA binding EC of LILRB2 antibodies. The ELISA binding EC₅₀ of these 24 antibodies were measured by indirect ELISA. […] After incubation, HRP-conjugated goat anti-human Fc secondary antibody was incubated with the plates. The TMB substrate was added for color development and measurement of absorbance at 450 nm.

Row | Binder | EC50 [nM]
49 | B1 | 9.97
50 | B2 | 82.9
51 | B3 | 3.82
